Data: patent publication US20120058906A1 (published 2012)

What was measured:
[1] = biological target: T1, rHuman Erythropoietin R/Fc Chimera, CF (R&D Systems Cat#963-ER) (human, UniProt P19235 25-250); assay: ECL (MSD multi-spot), antigen on plate, Fab 0.4 nM
T1 construct: Bought Fc chimera; also called EPO R/Fc; Epo R; not shown: Fc of the bought chimera
T1 sequence: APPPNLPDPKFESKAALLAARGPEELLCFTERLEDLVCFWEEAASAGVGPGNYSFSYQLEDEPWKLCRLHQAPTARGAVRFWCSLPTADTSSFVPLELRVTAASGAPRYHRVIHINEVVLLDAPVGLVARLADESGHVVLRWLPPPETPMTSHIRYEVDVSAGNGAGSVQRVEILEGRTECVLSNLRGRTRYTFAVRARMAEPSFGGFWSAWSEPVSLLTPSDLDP

[2] = biological target: T2, rHuman IGF-1 sR (insulin-like growth factor-1 soluble receptor), CF (R&D Systems Cat#391-GR) (human, UniProt P08069 31-932); assay: ECL (MSD multi-spot), antigen on plate, Fab 0.4 nM
T2 construct: Bought soluble receptor; also called IGF-R1

[3] = biological target: T3, rHuman HGF R/c-MET/Fc Chimera, CF (R&D Systems Cat#358-MT/CF) (human, UniProt P08581 25-932); assay: ECL (MSD multi-spot), antigen on plate, Fab 0.4 nM
T3 construct: Bought Fc chimera; also called HGF R/Fc; not shown: Fc of the bought chimera

[4] = biological target: T4, rHuman EGF R/Fc Chimera, CF (R&D Systems Cat#344-ER) (human, UniProt P00533 25-645); assay: ECL (MSD multi-spot), antigen on plate, Fab 0.4 nM
T4 construct: Bought Fc chimera; also called ErbB-1; not shown: Fc of the bought chimera

[5] = biological target: T5, rHuman EGF R/Fc Chimera, CF (R&D Systems Cat#344-ER) (human, UniProt P00533 25-645); assay: MSD ECL multi-spot plate; Fab 8.1 nM; blank spot 435
T5 construct: also called epidermal growth factor receptor; Fc part of the bought chimera not given

[6] = biological target: T6, rHuman Erythropoietin R/Fc Chimera, CF (R&D Systems Cat#963-ER) (human, UniProt P19235 25-250); assay: as above
T6 construct: also called EPO R/Fc; Epo R; Fc part of the bought chimera not given
T6 sequence: T1 sequence

[7] = biological target: T7, rHuman HGF R/c-MET/Fc Chimera, CF (R&D Systems Cat#358-MT/CF) (human, UniProt P08581 25-932); assay: as above
T7 construct: also called HGF R/Fc; hepatocyte growth factor receptor; Fc part of the bought chimera not given

[8] = biological target: T8, rHuman Notch-1/Fc Chimera, CF (R&D Systems Cat#3647-TK) (human, UniProt P46531 19-526); assay: as above
T8 construct: Fc part of the bought chimera not given

[9] = biological target: T9, Recombinant Human DLL4 (R&D Systems Cat#1506-D4/CF) (human, UniProt Q9NR61 27-524); assay: as above
T9 construct: also called delta-like protein 4

[10] = biological target: T10, rHuman IGF-1 sR, (IGF-1 sR), CF (R&D Systems Cat#391-GR) (human, UniProt P08069 31-932); assay: as above
T10 construct: also called insulin-like growth factor-1 soluble receptor; IGF-R1

[11] = biological target: T11, rHuman Notch-1/Fc Chimera, CF (R&D Systems Cat#3647-TK) (human, UniProt P46531 19-526); assay: MSD ECL multi-spot plate, antigen immobilized; Fab 8 nM; blank spot 489
T11 construct: Purchased Fc chimera; not shown: Fc portion of the purchased chimera

[12] = biological target: T12, rHuman HGF R/c-MET/Fc Chimera, CF (R&D Systems Cat#358-MT/CF) (human, UniProt P08581 25-932); assay: as above
T12 construct: Purchased Fc chimera; also called HGF R/Fc; not shown: Fc portion of the purchased chimera

[13] = biological target: T13, rHuman P-Cadherin/Fc Chimera, CF (R&D Systems Cat#861-PC) (human, UniProt P22223 108-654); assay: as above
T13 construct: Purchased Fc chimera; not shown: Fc portion of the purchased chimera

[14] = biological target: T14, rHuman IGF-1 sR (IGF-1 sR), CF (R&D Systems Cat#391-GR) (human, UniProt P08069 31-932); assay: as above
T14 construct: Purchased soluble receptor; also called insulin-like growth factor-1 soluble receptor; IGF-R1

[15] = biological target: T15, Recombinant Human DLL4 (R&D Systems Cat#1506-D4/CF) (human, UniProt Q9NR61 27-524); assay: as above
T15 construct: Purchased recombinant protein; also called delta-like protein 4

[16] = biological target: T16, rHuman ErbB2/Fc Chimera, CF (R&D Systems Cat#1129-ER) (human, UniProt P04626 23-652); assay: as above
T16 construct: Purchased Fc chimera; also called HER2/neu; not shown: Fc portion of the purchased chimera

[17] = biological target: T17, rHuman EGF R/Fc Chimera, CF (R&D Systems Cat#344-ER) (human, UniProt P00533 25-645); assay: as above
T17 construct: Purchased Fc chimera; not shown: Fc portion of the purchased chimera

[18] = biological target: T18, rHuman Erythropoietin R/Fc Chimera, CF (R&D Systems Cat#963-ER) (human, UniProt P19235 25-250); assay: as above
T18 construct: Purchased Fc chimera; also called EPO R/Fc; Epo R; not shown: Fc portion of the purchased chimera
T18 sequence: T1 sequence

[19] = biological target: T19, rHuman CD44/Fc Chimera, CF (R&D Systems Cat#3660-CD) (human, UniProt P16070 21-220); assay: as above
T19 construct: Purchased Fc chimera; not shown: Fc portion of the purchased chimera
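Also: blank spot per well as comparator with Hit at signal to blank ratio of 4 or more.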

B1: Fab VH1-46_IGHD6-6*01_IGHJ1*01_S102A_S103P_S104F & L6_IGKJ1*01_S28P (Fab, V domains shown)
VH: QVQLVQSGAEVKKPGASVKVSCKASGYTFTSYYMHWVRQAPGQGLEWMGIINPSGGSTSYAQKFQGRVTMTRDTSTSTVYMELSSLRSEDTAVYYCAREEYAPFSAEYFQHWGQGTLVTVSS
VL: EIVLTQSPATLSLSPGERATLSCRASQPVSSYLAWYQQKPGQAPRLLIYDASNRATGIPARFSGSGSGTDFTLTISSLEPEDFAVYYCQQRSNWPPWTFGQGTKVEIKR
notes: Fab
Q: Which ECL signal [1] does the source give for B1 here?
A: The ECL signal was 147 ECL signal.

Q: And the ECL signal [2]?
A: The ECL signal was 172 ECL signal.

Q: What about the ECL signal [3] of the same binder?
A: Its ECL signal is 199 ECL signal.

Q: And the ECL signal [4]?
A: The ECL signal was 246 ECL signal.

B2: Fab VH1-8_IGHD2-2*01_IGHJ6*01 & L12_IGKJ1*01 (Fab, V domains shown)
VH: QVQLVQSGAEVKKPGASVKVSCKASGYTFTSYDINWVRQATGQGLEWMGWMNPNSGNTGYAQKFQGRVTMTRNTSISTAYMELSSLRSEDTAVYYCARGGYCSSTSCYADYYYYYGMDVWGQGTTVTVSS
VL: not shown
Q: How did the ECL signal [5] turn out when B2 was run?
A: Its ECL signal is 560 ECL signal.

Q: And the ECL signal [6]?
A: The ECL signal was 660 ECL signal.

Q: What about the ECL signal [7] of the same binder?
A: The ECL signal was 551 ECL signal.

Q: And the ECL signal [8]?
A: The ECL signal was 612 ECL signal.

Q: And the ECL signal [9]?
A: The ECL signal was 1550 ECL signal.

Q: What about the ECL signal [10] of the same binder?
A: Its ECL signal is 518 ECL signal.

B3: Fab VH5-51_IGHD5-18*01>3_IGHJ4*01_G100K & V3-4_IGLJ1*01 (Fab, V domains shown)
VH: EVQLVQSGAEVKKPGESLKISCKGSGYSFTSYWIGWVRQMPGKGLEWMGIIYPGDSDTRYSPSFQGQVTISADKSISTAYLQWSSLKASDTAMYYCARRKYSYGYDYFDYWGQGTLVTVSS
VL: QTVVTQEPSFSVSPGGTVTLTCGLSSGSVSTSYYPSWYQQTPGQAPRTLIYSTNTRSSGVPDRFSGSILGNKAALTITGAQADDESDYYCVLYMGSGISYVFGTGTKVTVL
notes: It was expressed as a Fab: CH1 with tags from Plasmid A and lambda CL from Plasmid E; also called Fab No. 22
Q: B3 was tested. Which ECL signal [11] did it give?
A: The ECL signal was 831 ECL signal.

Q: And the ECL signal [12]?
A: The ECL signal was 1260 ECL signal.

Q: What about the ECL signal [13] of the same binder?
A: Its ECL signal is 788 ECL signal.

Q: What about the ECL signal [14] of the same binder?
A: The ECL signal was 1200 ECL signal.

Q: And the ECL signal [15]?
A: Its ECL signal is 11400 ECL signal.

Q: What about the ECL signal [16] of the same binder?
A: The ECL signal was 1230 ECL signal.

Q: And the ECL signal [17]?
A: Its ECL signal is 1030 ECL signal.

Q: And the ECL signal [18]?
A: Its ECL signal is 881 ECL signal.

Q: And the ECL signal [19]?
A: Its ECL signal is 853 ECL signal.
